Source: patent US12286661B2, “Methods for making high intensity sweeteners” (Firmenich Incorporated, priority 2018, dated 2025)

Test system: mogrol
Assay: Mogroside IA and/or IE production from mogrol by glycosyltransferases expressed in S. cerevisiae, LCMS
Assay type: cell-based
Settings: 10 μM mogrol, 2-4 days at 30° C.; identified by LCMS
From the text: DNA was obtained through gene synthesis either through Genescript, IDT, or Genewiz. For some of the cucurbitadienol synthases, cDNA or genomic DNA was obtained through 10-60 day old seedlings followed by PCR amplification using specific and degenerate primers. DNA was cloned through standard molecular biology techniques or through yeast gap repair cloning (Joska et al., 2014) into one of the following overexpression vectors: pESC-Ura, pESC-His, or pESC-LEU. Gene expression was regulated by one of the following promoters; Gall, Gal10, Tef1, or GDS. Yeast transformation was performed using Zymo Yeast Transformation Kit II. Yeast strains were grown in standard media (YPD or SC) containing the appropriate selection with 2% glucose or 2% galactose for induction of heterologous genes. Yeast strains were grown in shake flask or 96 well plates at 30° ° C., 140-250 rpm. When indicated, lanosterol synthase inhibitor, Ro 48-8071 (Cayman Chemicals) was added (50 ug/ml). Yeast samples producing mogrol precursors, mogrol and mogrosides were processed through one of the following: • Cucurbitadienol and 11-OH Cucurbitadienol: Samples cell pellets were lysed (Yeast Buster) followed by ethyl acetate extraction, drying, and resuspension in methanol. • ·Mogrol and Mogrosides: Samples cell pellets were lysed in 50% ETOH, incubated at 80° C. for 30 min, filtered, dried and resuspended in MeOH for LCMS screening.
For analyzing Mogroside IIIE & Compound 1, the LCMS method included the use of Fluoro-phenyl 2.1×100 mm column, gradient 15 to 30% B for 6 minutes, at flow rate of 0.55 ml/min. For analyzing yeast production of mogroside I during enzyme screening, the LCMS method used a Phenomenex Kinetex Polar C18, 4.6×100 mm, 2.6 μm column, and a gradient of 25% to 55% B over 3 minutes, and 100% B at 3.5 minutes with a flow rate of 1.5 ml/min. Detection by ESI source negative mode single ion monitoring of 683.4 for mogroside I and 799.4 for mogroside II.
Various glycosyltransferase proteins were expressed in S. cerevisiae grown in the presence of 10 μM mogrol for 2-4 days at 30° C., 140-250 rpm in either shake flask or 96 well plates. Glycosyltransferases leading to production of Mogroside IA (glycosylation of C24-OH position) and/or Mogroside IE (glycosylation of C3-OH position) are provided in Table 6. DNA and protein sequences for the enzymes are provided in SEQ IDs 1050-1071 (see Table 1).

B1: SEQ ID NO. 1058/1059: glycosyltransferase (DNA/protein SEQ ID NO) producing mogroside I from mogrol (protein, listed as Barbarea vulgaris)
chain: MASETTHQFHSPLHFVLFPFMAQGHMIPMVDIARILAQRGVTITIVTTPHNAARFKNVLSRAIQSGLPINLVQAKFPSQESGSLEGHENLDLLDSLGASLTFFKATNMFEKPVEKLLKEIQPRPSCIIGDMCLPYTNRIAKNLGIPKIIFHGMCCFNLLCMHIMRQNYEFLETIDSEKEYFPIPNFPERAEFTKSQLPMITYAGEFKEFLDEVTEGDNTSYGVIVNTFEELEPAYVRDYKKVKAGKVWSIGPVSLCNKVGEDKAERGNKAAIDQDECIKWLDSKEEGSVLYVCLGSICNLPLSQLKELGLGLEESQRPFIWVIRGWEKYNELAEWISESGFKERIKERGLLIRGWSPQMLILSHPAVGGFLTHCGWNSTLEGITSGVPLLTWPLFGDQFCNEKLVVQVLKVGVRSGVEESMKWGQEENIGVLVDKEGVKKAVEEVMGESDDAKERRRRVKELGQLAHKAVEEGGSSHSNITSLLQDIRQLQSKK
- Mogroside IA: 261900
- Mogroside IE: 104300

B2: SEQ ID NO. 1060/1061: glycosyltransferase (DNA/protein SEQ ID NO) producing mogroside I from mogrol (protein, listed as Barbarea vulgaris)
chain: MASESCHHSHCPLHFVLFPFMAQGHMIPMVDIARLLALRGATITIVTTPHNATRFNNLLSRAIESDLSINIVHVNFPYQEAGLSEGQENVDLLESMGLMVPFLKAVNMLEEPVMKLMEEMKPRPSCLISDFCLHYTSKITKKFNIPKIVFHGMGCFCLLCMHVLRRNIEILKNLKSDKEYFLVPSFPDIVEFTKPQVPVETNASGDWKEFLEAMVEAEDTSYGVIVNTFQELEPAYVKDYKEARAGKVWSIGPVSLCNKIEADKAERGNKAAIDQEECLKWLDSKEEGSVLYVCLGSICNLPLAQLKELGIGLEESQRPFIWVIRGWEKYNELSEWMLESGFEERVKDRGLLIKGWSPQMLVLSHPSVGGFLTHCGWNSTLEGITSGVPLLTWPLFADQFCNEKLVVQVLKVGVRAGVEDPMSWGEEEKVGVLLDKEGVKKAVEELMGESDDAKERRKRVKELGELAHKAVEEGGSSHSNITLFLQDISQYKSVGTF
- Mogroside IA: 696200
- Mogroside IE: not detected

B3: SEQ ID NO. 1062/1063: glycosyltransferase (DNA/protein SEQ ID NO) producing mogroside I from mogrol (protein, listed as Barbarea vulgaris)
chain: MASITNHKSDPLHFVLFPFMAQGHMIPMVDIARLLAQRGLTITIVTTPHNASRFKNVLNRAIESGLPINILHVKLPYQEVGLPEGLENIDCFDSMEHMIPFFKGVNMVEESVQKLFEEMSPRPSCIISDFCLPYTSKVAKKFNIPKILFHGMCCLCLLCMHVLRKNPKILENLKSDKEHFVVPYFPDKIELTRPQVPMDTYVPGELKEFMEDLVEADKTSYGVIVNTFQELEPAYVKDYKETRSGKAWSVGPVALCNKARIDKAERGNKSDIDQDECLKWLDSKEERSVLYVCLGSICNLPLAQLKELGLGLEESTRPFIWVIRGWDKNKQLVEWFSESGFEERIKDRGLLIKGWSPQMLILSHQSVGGFLTHCGWNSTLEGITAGLPLLTWPLFADQFCNEKLVVQVLNSGVRAGVEQPMKWGEEEKIGVLVDKEGVKKAVEELMGESDEANERRRRAKELGELAHKAVEEGGSSHSNITFLLQDIMQLAQSNN
- Mogroside IA: 1816000
- Mogroside IE: not detected

B4: SEQ ID NO. 1064/1065: glycosyltransferase (DNA/protein SEQ ID NO) producing mogroside I from mogrol (protein, listed as Barbarea vulgaris)
chain: MASAKLHQFHPSLHFVLFPFMAQGHMIPMIDIARLLAQRGVTITIVTTLHNSARFRNVLSRAIESGLPINLVHVKFPYQEAGLPEGQENIDSLDSKELTVPFFKAVNMLEEPVMKLMEEMKPRPSCLISDLCLPYTSKIAKKFNIPKIVFHGMGCFCLLCMHVLRRNLEILQNLKSDKEYFWIPNFPDRVEFTKPQVPVRINASGDWKVFLDEMVKAEETSYGVIVNTFQELEPAYVKDFQEARAGKVWSIGPVSLCNKIEADKAERGNKAAIDQDECLKWLDSKEGGSVLYVCLGSICNLPLVQLIELGLGLEESQRPFIWVIRGWEKYNELSEWISESGFEERVKDRGLLIRGWAPQVLILSHPSVGGFLTHCGWNSTLEGITSGVPLLTLPLFGDQFCNQKLIVQVLKVGVSAGVEEVMGWGEEEKIGVLVDKERVKKTVEEVMGESDDAKERRRRVKELGKLAHKAVEEGGSSHSNITLFLQDMCQLQSVGIY
- Mogroside IA: 76330
- Mogroside IE: 13290

B5: SEQ ID NO. 1066/1067: glycosyltransferase (DNA/protein SEQ ID NO) producing mogroside I from mogrol (protein, listed as Barbarea vulgaris)
chain: MASITNHKSDPLHFVLFPFMAQGHMIPMVDIARLLAQRGLTITIVTTPHNASRFKNVLNRAIESGLPINILHVKLPYQEVGLPEGLENIDCFDSMEHMIPFFKGVNMVEESVQKLFEEMSPRPSCIISDFCLPYTSKVAKKFNIPKILFHGMCCLCLLCMHVLRKNPKILENLKSDKEHFVVPYFPDKIELTRPQVPMDTYVPGELKEFMEDLVEADKTSYGVIVNTFQELEPAYVKDYKETRSGKAWSVGPVALCNKARIDKAERGNKSDIDQDECLKWLDSKEERSVLYVCLGSICNLPLAQLKELGLGLEESTRPFIWVIRGWDKNKQLVEWFSESGFEERIKDRGLLIKGWSPQMLILSHQSVGGFLTHCGWNSTLEGITAGLPLLTWPLFADQFCNEKLVVQVLNSGVRAGVEQPMKWGEEEKIGVLVDKEGVKKAVEELMGESDEANERRRRAKELGELAHKAVEEGGSSHSNITFLLQDIMQLAQPITEPSFLVQSWHYKKALLINLLQRTGHYQSK
- Mogroside IA: 562100
- Mogroside IE: not detected

B6: SEQ ID NO. 1068/1069: glycosyltransferase (DNA/protein SEQ ID NO) producing mogroside I from mogrol (protein, listed as Barbarea vulgaris)
chain: MVSEITHKSYPLHFVLFPFMAQGHMIPMVDIARLLAQRGVKITIVTTPHNAARFKNVLSRAIESGLPISIVQVKLPSQEAGLPEGNETLDSLVSMELMIHFLKAVNMLEEPVQKLFEEMSPQPSCIISDFCLPYTSKIAKKFNIPKILFHGMCCFCLLCMHILRKNREIVENLKSDKEHFVVPYFPDRVEFTRPQVPVATYVPGDWHEITEDMVEADKTSYGVIVNTYQELEPAYANDYKEARSGKAWTIGPVSLCNKVGADKAERGNKADIDQDECLKWLNSKEEGSVLYVCLGSICNLPLSQLKELGLGLEESQRPFIWVIRGWEKNKELHEWFSESGFEERIKDRGLLIKGWAPQMLILSHHSVGGFLTHCGWNSTLEGLTAGLPLLTWPLFADQFCNEKLAVQVLKAGVSAGVDQPMKWGEEEKIGVLVDKEGVKKAVEELMGESDDAKEIRRRAKELGELAHKAVEEGGSSHSNITSLLEDIMQLAQSNN
- Mogroside IA: 1315000
- Mogroside IE: not detected

B7: SEQ ID NO. 1070/1071: glycosyltransferase (DNA/protein SEQ ID NO) producing mogroside I from mogrol (protein, listed as Barbarea vulgaris)
chain: MVSEITHKSYPLHFVLFPFMAQGHMIPMVDIARLLAQRGVKITIVTTPHNAARFENVLNRAIESGLPISIVQVKLPSQEAGLPEGNETFDSLVSMELLVPFFKSVNMLEEPVQKLFEEMSPQPSCIISDFCLPYTSKIAKKFNIPKILFHGMCCFCLLCMHVLRKNHEIVENLKSDKEHFVVPYFPDRVEFTRPQVPVATYVPGDWHEITGDMVEADKTSYGVIVNTCQELEPAYANDYKEARSGKAWTIGPVSLCNKVGADKAERGNKADIDQDECLKWLNSKEEGSVLYVCLGSICNLPLSQLKELGLGLEESQRPFIWVIRGWEKNKELLEWFSESGFEERIKDRGLLIKGWAPQMLILSHHSVGGFLTHCGWNSTLEGLTAGLPLLTWPLFADQFCNEKLAVQVLKAGVSAGVDQPMKWGEEEKIGVLVDKEGVKKAVEELMGESDDAKEIRRRAKELGELAHKAVEEGGSSHSNITSLLEDIMQLAQSNN
- Mogroside IA: 1764000
- Mogroside IE: not detected

B8: SEQ ID NO. 1050/1051: glycosyltransferase (DNA/protein SEQ ID NO) producing mogroside I from mogrol (protein, listed as Bacillus licheniformis)
chain: MRHKHIAIFNIPAHGHINPTLALTASLVKRGYRVTYPVTDEFVKAVEETGAEPLNYRSTLNIDPQQIRELMKNKKDMSQAPLMFIKEMEEVLPQLEALYENDKPDLILFDFMAMAGKLLAEKFGIEAVRLCSTYAQNEHFTFRSISEEFKIELTPEQEDALKNSNLPSFNFEDMFEPAKLNIVFMPRAFQPYGETFDERFSFVGPSLAKRKFQEKETPIISDSGRPVMLISLGTAFNAWPEFYHMCIEAFRDTKWQVIMAVGTTIDPESFDDIPENFSIHQRVPQLEILKKAELFITHGGMNSTMEGLNAGVPLVAVPQMPEQEITARRVEELGLGKHLQPEDTTAASLREAVSQTDGDPHVLKRIQDMQKHIKQAGGAEKAADEIEAFLAPAGVK
- Mogroside IA: 2700609
- Mogroside IE: not detected
